Measured values as given in patent US20230272055A1 (Incyte, published 2023).
Positions count from the first letter of the chain named.

T1: human mutCALR on BaF3 cells stably expressing human MPL and human mutCALR (MPL-mutCALR cells) (human)
T1 construct: also called mutant calreticulin
T1 chain: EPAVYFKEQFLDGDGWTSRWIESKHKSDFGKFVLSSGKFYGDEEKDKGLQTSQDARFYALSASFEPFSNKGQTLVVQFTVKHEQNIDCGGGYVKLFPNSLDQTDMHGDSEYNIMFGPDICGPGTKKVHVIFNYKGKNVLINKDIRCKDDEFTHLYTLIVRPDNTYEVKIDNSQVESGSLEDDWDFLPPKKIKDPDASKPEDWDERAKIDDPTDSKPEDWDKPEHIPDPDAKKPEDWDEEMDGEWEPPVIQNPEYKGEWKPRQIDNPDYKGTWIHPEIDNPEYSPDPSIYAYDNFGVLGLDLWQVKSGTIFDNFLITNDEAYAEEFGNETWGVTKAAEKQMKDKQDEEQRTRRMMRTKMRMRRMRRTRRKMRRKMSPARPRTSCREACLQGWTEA

B1: anti-mutCALR antibody clone 133 (antibody, human IgG1, lambda, N297A, V domains shown)
VH: EVQLVQSGAEVKKPGASVKVSCKVSGYTLTELSMQWVRQAPGKGLEWMGGFDPDDAETMYAEKFQGRLTVTEDTSTDTVYMELSSLRSEDTAVYFCATSPGYDFFDYWGQGTLVTVSS
VL: SYELTQPPSVSVAPGKTARITCGGDNIGSKSVHWYQQKPGQAPVLVVYDDSDRPSGIPERFSGSNSGNTATLTINRVEAGDEADYYCQVWDSSNDLLIFGGGTKLTVLG
B2: anti-mutCALR antibody clone 172 (antibody, human IgG1, lambda, N297A, V domains shown)
VH: B1 VH with D55S, A56G, S84R, R87T, V93L
VL: SYVLTQPPSVSVAPGQTARITCGGSDIGDEIVHWYQQKPGQAPVLVVYDDSDRPSGIPERFSGSNSGNTATLTISRAQAGDEADYYCQVWDSSSDHLIFGGGTKLTVLG
B3: anti-mutCALR antibody clone 188 (antibody, human IgG1, lambda, N297A, V domains shown)
VH: B1 VH with D55E, A56G
VL: B2 VL with A77V, Q78E
B4: anti-mutCALR antibody clone 135 (antibody, human IgG1, lambda, N297A, V domains shown)
VH: B1 VH with D55A, A56G, S84R, R87T, V93L
VL: B1 VL with E3V, N75S
B5: anti-mutCALR antibody clone 189 (antibody, human IgG1, lambda, N297A, V domains shown)
VH: B1 VH
VL: B2 VL with A77V, Q78E
B6: anti-mutCALR antibody clone 134 (antibody, human IgG1, lambda, N297A)
heavy: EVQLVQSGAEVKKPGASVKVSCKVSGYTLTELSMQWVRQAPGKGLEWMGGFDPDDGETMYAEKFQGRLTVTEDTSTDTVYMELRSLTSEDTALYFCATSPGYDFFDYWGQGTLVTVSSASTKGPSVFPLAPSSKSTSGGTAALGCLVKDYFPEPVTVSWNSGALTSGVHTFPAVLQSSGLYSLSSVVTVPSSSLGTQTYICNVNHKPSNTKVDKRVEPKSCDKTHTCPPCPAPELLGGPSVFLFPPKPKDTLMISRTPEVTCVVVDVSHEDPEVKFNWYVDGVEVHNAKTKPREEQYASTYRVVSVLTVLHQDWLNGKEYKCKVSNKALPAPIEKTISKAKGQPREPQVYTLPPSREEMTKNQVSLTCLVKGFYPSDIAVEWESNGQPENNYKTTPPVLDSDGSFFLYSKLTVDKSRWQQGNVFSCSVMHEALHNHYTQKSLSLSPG
light: SYVLTQPPSVSVAPGKTARITCGGDNIGSKSVHWYQQKPGQAPVLVVYDDSDRPSGIPERFSGSNSGNTATLTISRVEAGDEADYYCQVWDSSNDLLIFGGGTKLTVLGQPKAAPSVTLFPPSSEELQANKATLVCLISDFYPGAVTVAWKADSSPVKAGVETTTPSKQSNNKYAASSYLSLTPEQWKSHRSYSCQVTHEGSTVEKTVAPTECS
B7: anti-mutCALR antibody clone 137 (antibody, human IgG1, lambda, N297A, V domains shown)
VH: B1 VH with D55E, A56G, S84R, R87T, V93L
VL: B1 VL with E3V, N75S
B8: anti-mutCALR antibody clone 183 (antibody, human IgG1, lambda, N297A, V domains shown)
VH: B1 VH with D55E, A56G, S84R, R87T, V93L
VL: B2 VL with A77V, Q78E
B9: anti-mutCALR antibody clone 173 (antibody, human IgG1, lambda, N297A, V domains shown)
VH: B1 VH with D55E, A56G, S84R, R87T, V93L
VL: B2 VL
B10: anti-mutCALR antibody clone 186 (antibody, human IgG1, lambda, N297A, V domains shown)
VH: B1 VH with D55A, A56G
VL: B2 VL with A77V, Q78E
B11: anti-mutCALR antibody clone 140 (antibody, human IgG1, lambda, N297A, V domains shown)
VH: B1 VH with D55A, A56G
VL: B1 VL with E3V, N75S
B12: anti-mutCALR antibody clone 170 (antibody, human IgG1, lambda, N297A)
heavy: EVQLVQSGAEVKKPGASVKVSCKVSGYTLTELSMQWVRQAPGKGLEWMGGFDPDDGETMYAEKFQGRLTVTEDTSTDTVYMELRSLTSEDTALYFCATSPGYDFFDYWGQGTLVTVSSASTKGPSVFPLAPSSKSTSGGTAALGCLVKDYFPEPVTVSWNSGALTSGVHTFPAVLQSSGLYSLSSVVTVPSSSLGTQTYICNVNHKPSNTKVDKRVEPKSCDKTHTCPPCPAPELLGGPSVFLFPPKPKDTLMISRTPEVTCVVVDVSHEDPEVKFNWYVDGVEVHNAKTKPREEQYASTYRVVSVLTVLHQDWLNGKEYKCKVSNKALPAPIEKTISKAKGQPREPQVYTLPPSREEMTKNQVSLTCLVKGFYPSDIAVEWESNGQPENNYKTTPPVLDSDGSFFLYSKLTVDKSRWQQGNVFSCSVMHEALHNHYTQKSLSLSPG
light: B6 light with K16Q, D25S, N26D, S29D, K30E, S31I, V77A, E78Q, N94S, L96H
B13: anti-mutCALR antibody clone 143 (antibody, human IgG1, lambda, N297A, V domains shown)
VH: B1 VH
VL: B1 VL with E3V, N75S
B14: anti-mutCALR antibody clone 141 (antibody, human IgG1, lambda, N297A, V domains shown)
VH: B1 VH with D55S, A56G
VL: B1 VL with E3V, N75S
B15: anti-mutCALR antibody clone 171 (antibody, human IgG1, lambda, N297A, V domains shown)
VH: B1 VH with D55A, A56G, S84R, R87T, V93L
VL: B2 VL
B16: anti-mutCALR antibody clone 181 (antibody, human IgG1, lambda, N297A, V domains shown)
VH: B1 VH with D55A, A56G, S84R, R87T, V93L
VL: B2 VL with A77V, Q78E
B17: anti-mutCALR antibody clone 182 (antibody, human IgG1, lambda, N297A, V domains shown)
VH: B1 VH with D55S, A56G, S84R, R87T, V93L
VL: B2 VL with A77V, Q78E
B18: anti-mutCALR antibody clone 138 (antibody, human IgG1, lambda, N297A, V domains shown)
VH: B1 VH with S84R, R87T, V93L
VL: B1 VL with E3V, N75S
B19: anti-mutCALR antibody clone 184 (antibody, human IgG1, lambda, N297A, V domains shown)
VH: B1 VH with S84R, R87T, V93L
VL: B2 VL with A77V, Q78E
B20: anti-mutCALR antibody clone 136 (antibody, human IgG1, lambda, N297A, V domains shown)
VH: B1 VH with D55S, A56G, S84R, R87T, V93L
VL: B1 VL with E3V, N75S
B21: anti-mutCALR antibody clone 142 (antibody, human IgG1, lambda, N297A, V domains shown)
VH: B1 VH with D55E, A56G
VL: B1 VL with E3V, N75S
B22: anti-mutCALR antibody clone 187 (antibody, human IgG1, lambda, N297A, V domains shown)
VH: B1 VH with D55S, A56G
VL: B2 VL with A77V, Q78E
B23: anti-mutCALR antibody clone 174 (antibody, human IgG1, lambda, N297A, V domains shown)
VH: B1 VH with S84R, R87T, V93L
VL: B2 VL
B24: anti-mutCALR antibody clone 55 (antibody, human IgG1, lambda, N297A)
heavy: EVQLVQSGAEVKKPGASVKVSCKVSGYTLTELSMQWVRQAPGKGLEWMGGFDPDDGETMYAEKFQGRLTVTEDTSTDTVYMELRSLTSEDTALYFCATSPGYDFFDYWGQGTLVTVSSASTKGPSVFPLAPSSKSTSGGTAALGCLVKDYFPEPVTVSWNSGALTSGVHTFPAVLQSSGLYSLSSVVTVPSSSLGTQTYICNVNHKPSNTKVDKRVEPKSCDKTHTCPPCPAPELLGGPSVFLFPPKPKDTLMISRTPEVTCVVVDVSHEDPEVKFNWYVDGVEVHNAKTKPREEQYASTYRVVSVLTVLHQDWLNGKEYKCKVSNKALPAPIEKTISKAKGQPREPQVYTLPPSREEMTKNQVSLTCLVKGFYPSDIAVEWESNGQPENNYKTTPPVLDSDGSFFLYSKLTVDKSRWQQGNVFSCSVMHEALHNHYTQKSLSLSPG
light: QSALTQPASVSGSPGQSITISCTGTSSDVGGYNYVSWYQQHPGKAPKLMIYEVSNRPSGVSNRFSGSNSGNTATLTINRVEAGDEADYYCQVWDSSNDLLIFGGGTKLTVLGQPKAAPSVTLFPPSSEELQANKATLVCLISDFYPGAVTVAWKADSSPVKAGVETTTPSKQSNNKYAASSYLSLTPEQWKSHRSYSCQVTHEGSTVEKTVAPTECS
notes: also called antibody 55

Molecular target: T1, human mutCALR on BaF3 cells stably …
Test: flow cytometry, BaF3 MPL-mutCALR cells
Experimental: On the day of the assay, cells were washed and resuspended in assay buffer. Approximately 200,000 cells/well were added to 96-well plates and stained with the indicated concentration of antibodies for 30 minutes on ice. Cells were then washed and stained with goat anti-human secondary conjugated to R-phycoerythrin (R-PE) (Jackson Immuno Research Laboratories) for 30 minutes on ice. The cells were then washed and analyzed by flow cytometry.

Binder	EC50 [ng/mL]	MPL-mutCALR AUC
B1	1.7	85200
B2	12.4	53600
B3	4.4	68000
B4	3.2	56300
B5	10	57200
B6	–	96700
B7	1.7	69700
B8	5	70700
B9	4.3	67300
B10	3.9	53000
B11	4.3	54700
B12	23.2	76400
B13	7.9	69900
B14	6.3	60800
B15	21.7	50300
B16	3.5	55600
B17	5.2	52100
B18	2.6	85800
B19	6.3	61600
B20	2	65000
B21	2.3	71100
B22	3.5	49500
B23	4	63500
B24	10.1	73100
